Test results as given in patent US20150125849A1.

What was measured:
[1] = target: GFP with His-tag at the C-extreme (pETsa-GFP-his) [GFP: P42212]; experiment: detection of diluted antigen with 5 µg purified IgG (data not shown)
[2] = target: GFP with His-tag at the N-extreme (pETsa-his-GFP) [GFP: P42212]; experiment: as above

**Q.** What does the source list for “His-tag MAb (Invitrogen, Carlsbad, USA) (antibody)”?
**A.** antigen dilution at which detected [1]: 32 × dilution; antigen dilution at which detected [2]: 32 × dilution
